The values below come from US20170314054A1 (ROCHE SEQUENCING SOLUTIONS, published 2017).

No end group written: not given here.

Series [1] concerns the target T1, microbial transglutaminase from Streptomyces mobaraensis (MTG) (Streptomyces mobaraensis, UniProt P81453 77-407).
T1 sequence (looked up): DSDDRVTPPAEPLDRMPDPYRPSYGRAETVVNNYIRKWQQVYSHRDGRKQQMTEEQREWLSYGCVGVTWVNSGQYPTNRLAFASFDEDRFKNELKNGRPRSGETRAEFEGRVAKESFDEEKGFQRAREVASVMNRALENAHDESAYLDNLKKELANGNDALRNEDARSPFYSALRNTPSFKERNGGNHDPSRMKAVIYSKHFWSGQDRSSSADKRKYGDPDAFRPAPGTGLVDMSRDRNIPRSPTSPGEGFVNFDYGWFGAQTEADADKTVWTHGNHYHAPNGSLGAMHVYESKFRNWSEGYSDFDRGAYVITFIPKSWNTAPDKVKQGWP
Put plainly: cell-based or functional assay.

The target in series [2] is T2, Z-GGGARSKLGGGG (SEQ ID NO: 80).
T2 chain: GGGARSKLGGGG

The target in series [3] is T3, Z-GGGDEKPDGGGG (SEQ ID NO: 81).
T3 chain: GGGDEKPDGGGG

Series [4] addresses T4, Z-GGGDYALQGGGG (SEQ ID NO: 86).
T4 chain: GGGDYALQGGGG

For LSKLK (also: flanked by G:S (3:1) linkers on peptide array) [LSKLK (SEQ ID NO: 75)], the “A (array MTG labeling signal with Z-Gln-Gly-CAD-biotin)” value in series [1] was 13.3.

B1: microbial transglutaminase from Streptomyces mobaraensis (MTG) (protein)
chain: T1 sequence (looked up)
Take B1: in series [2], the KM (GLDH-coupled MTG activity assay, 100 µM Z-GGGDYALQGGGG as amine acceptor) came out at 66.8 µM; the Vmax (GLDH-coupled MTG activity assay, 100 µM Z-GGGDYALQGGGG as amine acceptor) came out at 5.1 pmol/s; the “difference in MTG catalytic efficiency against GGGDEKPDGGGG (SEQ ID NO: 81)” value is “an apparent difference in MTG catalytic efficiency of at least 10-fold was observed”; the kcat (GLDH-coupled MTG activity assay, 100 µM Z-GGGDYALQGGGG as amine acceptor) is 0.066 s⁻¹. For the same molecule, the kcat/KM (GLDH-coupled MTG activity assay, 100 µM Z-GGGDYALQGGGG as amine acceptor) in series [2] was 990 M⁻¹ s⁻¹. The “stated: almost no MTG turnover (rate of NADH oxidation, GLDH-coupled assay, 100 uM Z-GGGDYALQGGGG as amine acceptor)” value in series [3] was “filled circles: rate stays at about 0 pmol/s from 0 to 200 uM and reaches only about 0.2 pmol/s at 500 uM”. In addition, in series [4], the KM (GLDH-coupled MTG activity assay) is 0.97 mM, the Vmax (GLDH-coupled MTG activity assay) amounted to 0.46 nmol/s, the “difference in MTG catalytic efficiency against standard QG-substrate” value was “a difference in MTG catalytic efficiency of at least 3-fold” and the kcat (GLDH-coupled MTG activity assay) was 6 s⁻¹. Further, the kcat/KM (GLDH-coupled MTG activity assay) in series [4] came to 6200 M⁻¹ s⁻¹.

As to QRTKL (also: flanked by G:S (3:1) linkers on peptide array) [QRTKL (SEQ ID NO: 77)], the “A (array MTG labeling signal with Z-Gln-Gly-CAD-biotin)” value in series [1] was 13.3.

Turning to KTKYK (also: flanked by G:S (3:1) linkers on peptide array) [KTKYK (SEQ ID NO: 74)], the “A (array MTG labeling signal with Z-Gln-Gly-CAD-biotin)” value in series [1] was determined as 13.3.

Consider NRTKL (also: flanked by G:S (3:1) linkers on peptide array) [NRTKL (SEQ ID NO: 76)], for which, in series [1], the “A (array MTG labeling signal with Z-Gln-Gly-CAD-biotin)” value was 13.3.

As for GYKLK (also: flanked by G:S (3:1) linkers on peptide array) [GYKLK (SEQ ID NO: 78)], the “A (array MTG labeling signal with Z-Gln-Gly-CAD-biotin)” value in series [1] came to 13.3.
